B1: LINE1-full (parent)
chain: UACGUAGGUGGUUUUCCCCUGAUAGUGCUAAGGGGGCCUGGAAGUUUGGACUGGGCAGAGCUCAACACAGCGUGGCAAAGUGGCUGUGGCUAGACUGCCUCUCUGGAUUCCUCGUCACUCAGCAGGGCAUCUCUGAGAGAAAUGCC

Variants of: B1
Assay: self-cleavage, relative activity (ratio to wild type); higher = more cleavage; in vitro, sequencing; the parent is a self-cleaving ribozyme

Point of comparison: A78G U109C, self-cleavage 1.38. Against it:
- U29A A67G — lower, 0.67
- G4C U96A — lower, 0.12
- A67G U73A — lower, 0.24
- C90A A117C — lower, 0.05
- G34A U115A — lower, 1.08
- U109G U143C — lower, 0.87
- U102A G114A — higher, 1.57
- U9A A79G — lower, 1.01
- U134C A136U — lower, 1.26
- U119G A136G — lower, 0.94
- A94G A124U — lower, 0.36
- A42C G93A — lower, 0.03
- A50U U96C — lower, 0.1
- U73A G144A — higher, 1.4
- A42G G127U — higher, 1.9
- U12A U62A — lower, 0.05
- A31U C131U — lower, 1.06
- U108A A124U — lower, 1.35
- A6U U73A — higher, 1.54
- U23C U85A — lower, 0.07
- A64C A138G — lower, 0.31
- U81C G127A — higher, 2.07
- U23A U52A — lower, 1.37
- U47C G97C — lower, 1.3
- U15C A136G — higher, 1.52
- G74U A140G — higher, 1.99
- U87A G114A — lower, 0.05
- U102C U109A — lower, 1.31
- C99U A138U — lower, 0.74
- U14C G32A — lower, 0.99
- C133U — lower, 1.16
- U112C U130G — higher, 1.56
- G11A A42G — higher, 1.43
- G34A A121U — lower, 1.22
- G41A A65G — lower, 0.03
- U62C A65U — lower, 0.01
- G7A U85C — lower, 0.11
- C76A U134A — lower, 0.84
- U5A A69G — lower, 0.45
- C38U U62C — lower, 0
- A2C U119C — lower, 0.89
- G34A A79G — lower, 1.11
- U102C G114U — higher, 1.62
- G105A A117G — higher, 1.59
- U12G A129U — higher, 1.49
- U96A A117G — lower, 0.11
- G70C — lower, 0.15
- C118A A142G — higher, 1.41
- G75C — lower, 0.6
- C90U U130C — lower, 0.04
- U102C U119A — higher, 1.45
- U102A A121U — higher, 1.44
- G74U U134C — higher, 1.88
- G8A G70A — lower, 0.17
- A129G A136U — higher, 2.26
- U81A U112C — higher, 2.32
- A2U C111A — lower, 0.68
- A94G C133A — lower, 0.46
- G70A U115C — lower, 0.16
- A42U U104A — lower, 1.15
- A92U U109C — lower, 0.65
- G127A C128U — lower, 1.13
- U104C C145G — higher, 2.3
- U130A A141U — lower, 1.13
- G48U U52A — lower, 0.81
- G44A — lower, 1.21
- U87A — lower, 0.08
- G33A A107G — higher, 1.52
- A69U C95A — lower, 0.02
- A79U C99A — lower, 0.31
- U15A U39A — lower, 0.85
- C16G C71G — lower, 0.42
- U85C U112A — lower, 0.19
- U5A U45C — lower, 1
- U15A A77C — lower, 0.7
- A6U G75U — lower, 0.53
- A67U A107U — lower, 0.04
- A22U U115C — higher, 1.77
- G10A A31G — lower, 0.45
- U1A A31G — lower, 1.26
- G40A U96A — lower, 0.03
- C66U A117G — lower, 0.05
- A121U G126U — higher, 1.5
- G36C A117G — higher, 1.51
- U12A U20C — lower, 1.05
- U15C A24C — higher, 1.84
- U62C G127A — lower, 0.06
- U115C U143A — higher, 1.79
- G55C G72A — lower, 0.08
- A78G U104C — higher, 1.82
- C63A U81A — lower, 0.06
- A2G A141U — lower, 0.24
- U14A A42C — lower, 0.97
- G27A A30U — higher, 1.58
- A2G U112G — lower, 0.77
- G33C U62C — lower, 0.1
- A78G G93A — lower, 0.04
- G34C U39C — higher, 1.65
- U104C A129U — higher, 1.73
- U1C U115C — lower, 1.19
- A65U A121G — lower, 0.21
- U102C C113A — higher, 1.63
- C98U U102C — lower, 0.55
- A57U U96A — lower, 0.52
- C98U C123U — lower, 0.35
- A57U U134G — lower, 0.02
- U15C A92G — lower, 0.21
- U12G A67G — lower, 0.53
- U20A G48A — lower, 0.77
- G48A A59G — lower, 0.03
- U15A G86A — lower, 0.07
- A2U A42U — lower, 0.47
- U13A C103A — lower, 1.04
- U14A U108G — lower, 1.09
- A78U U96A — lower, 0.07
- G55U U102C — lower, 0.06
- C19A A124G — lower, 0.58
- C68U A129C — lower, 0.22
- C61G A77G — lower, 0.07
- C16A A138G — higher, 1.65
- A121U U143C — higher, 1.59
- A22G A94C — lower, 0.07
- G97A G126A — lower, 0.09
- A31G G34A — lower, 0.77
- A30G U73C — higher, 2.09
- U39C C90U — lower, 0.07
- G97U A129U — lower, 0.08
- C56U A107G — lower, 0.1
- U109C A117G — higher, 1.7
- A31G U45C — lower, 1.07
- U45C G137U — lower, 1.23
- G93U U112C — lower, 0.03
- U13C G32U — lower, 1.2
- A67G A124G — lower, 0.26
- C28G A65U — lower, 0
- G114U A141U — higher, 1.61
- A30U A94C — lower, 0
- C76U U100C — higher, 2.91
- A6U U15A — lower, 0.63
- U5C A78U — higher, 1.9
- U46C G53A — higher, 1.54
- C120A — higher, 1.41
- C76U U115C — higher, 2.12
- U20C G35A — higher, 1.73
- U9C A129U — lower, 1.27
- A22G A78C — higher, 1.45
- A2G A138G — lower, 0.98
- U20C C111U — lower, 1.03
- G10A U29C — lower, 1.12
- A92G A107U — lower, 0.09
- U81A A94U — lower, 0.6
- U13G U134A — lower, 1.06
- U45C A57G — lower, 0.7
- U130A A138G — lower, 1.31
- G25A U46A — higher, 1.42
- U39C U73G — lower, 1.08
- A43G A59G — lower, 0.14
- A59C A77U — lower, 0.6
- U29C G34A — lower, 0.73
- U5C A67U — lower, 0.47
- U47A A138G — higher, 1.39
- U13C A92U — lower, 0.68
- U26C A43U — lower, 1.21
- A50G U104A — lower, 0.85
- C61A — lower, 0.04
- U15A U29A — lower, 0.38

From the RNAGym collection of RNA variant scans (doi:10.7554/elife.90254)
